This is an account of results in patent CN117025546A.

The target in experiment [1] is GST标签蛋白 (Schistosoma japonicum (Blood fluke)) [GST: P08515]. Description: indirect ELISA, GST tag protein coated at 10000 to 0.64 ng/mL, antibody at 1 μg/mL. (In general: In an ELISA, binding on a coated surface is turned into a signal by an enzyme label.)
Experiment [2] shares this target. Description: indirect ELISA, GST tag protein coated in dilution series, antibody at 1 μg/mL.

B1: 抗GST单克隆抗体 (杂交瘤细胞株62H9分泌, CCTCC NO:C2021187) (antibody, V domains shown)
VH: EVQLQESGPELVKPGASVRMSCKASGYTFTSYFMHWVKQKSGQGLEWIGYINPYHDGTNYNEKFKGKATLTSDKSSSTAYMELSSLTSEDSAVYSCARSQRLHWYFDVWGAGTTVTVSS
VL: DIVLTQSPTSLAVSLGQRATISCRASQGVSASSYSYIHWYQQKPGQPPKLLIKYASNLESGVPARFSGSGSGTDFTLNVHPVEEEDTATYYCQHSWEIPLTFGGGTKLEIK
In turn, B1 registered a 亲和力 in experiment [1] of 20 ng/mL. For the same molecule, in experiment [2], the OD (450nm) at antigen 20ng/ml is 1 OD.
